Assay results from the MegaScale stability set (Tsuboyama et al. 2023).

B1: r16_88_TrROS_Hall (parent)
chain: EVIELKIKFKTPEQREKLKEIAKKLNAEVVEEKDGEVIIRFKTPEQAERALKEAEKLGAEVEL

Variants of: B1
Assay: folding stability dG (cDNA display proteolysis); higher = more stable
Settings: PBS, room temperature

First: EVIELKIKFKTPEQREKLKEIAKKLNAEVVEEKDGEVIIRFKTPEQAERALKEAEKEGAEVEL [L57E]
Second: EVIELKIKFKTPEQREKLKEIAKKLNAEVVEEKDGEVIIRFKTPEQAERALKEAEKFGAEVEL [L57F]
The “folding stability dG” value of the first is higher: 4.36 kcal/mol for the first, 4.33 kcal/mol for the second.

First: EVIELKIKFKTPEQREKLKEIAKKLNAEVVEEKDGEVIIRFKTPEQAERALKEAEKGGAEVEL [L57G]
Second: EVIELKIKFKTPEQREKLKEIAKKLNAEVVEEKDGEVIIRFKTPEQAERALKEAEKHGAEVEL [L57H]
The “folding stability dG” value of the first is lower: 3.96 kcal/mol for the first, 4.26 kcal/mol for the second.

Compared with EVIELKIKFKTPEQREKLKEIAKKLNAEVVEEKDGEVIIRFKTPEQAERALKEAEKIGAEVEL [L57I], EVIELKIKFKTPEQREKLKEIAKKLNAEVVEEKDGEVIIRFKTPEQAERALKEAEKKGAEVEL [L57K] is lower in “folding stability dG” value: 4.43 kcal/mol for the first, 3.5 kcal/mol for the second.

Going from EVIELKIKFKTPEQREKLKEIAKKLNAEVVEEKDGEVIIRFKTPEQAERALKEAEKMGAEVEL [L57M] to EVIELKIKFKTPEQREKLKEIAKKLNAEVVEEKDGEVIIRFKTPEQAERALKEAEKNGAEVEL [L57N], the “folding stability dG” value rises from 4.31 kcal/mol to 4.35 kcal/mol.

First: EVIELKIKFKTPEQREKLKEIAKKLNAEVVEEKDGEVIIRFKTPEQAERALKEAEKPGAEVEL [L57P]
Second: EVIELKIKFKTPEQREKLKEIAKKLNAEVVEEKDGEVIIRFKTPEQAERALKEAEKQGAEVEL [L57Q]
The “folding stability dG” value of the first is lower: 3.32 kcal/mol for the first, 4.25 kcal/mol for the second.

First: EVIELKIKFKTPEQREKLKEIAKKLNAEVVEEKDGEVIIRFKTPEQAERALKEAEKRGAEVEL [L57R]
Second: EVIELKIKFKTPEQREKLKEIAKKLNAEVVEEKDGEVIIRFKTPEQAERALKEAEKSGAEVEL [L57S]
The “folding stability dG” value of the first is lower: 3.57 kcal/mol for the first, 4.26 kcal/mol for the second.

Going from EVIELKIKFKTPEQREKLKEIAKKLNAEVVEEKDGEVIIRFKTPEQAERALKEAEKTGAEVEL [L57T] to EVIELKIKFKTPEQREKLKEIAKKLNAEVVEEKDGEVIIRFKTPEQAERALKEAEKVGAEVEL [L57V], the “folding stability dG” value rises from 4.04 kcal/mol to 4.5 kcal/mol.

First: EVIELKIKFKTPEQREKLKEIAKKLNAEVVEEKDGEVIIRFKTPEQAERALKEAEKWGAEVEL [L57W]
Second: EVIELKIKFKTPEQREKLKEIAKKLNAEVVEEKDGEVIIRFKTPEQAERALKEAEKYGAEVEL [L57Y]
The “folding stability dG” value of the first is higher: 4.6 kcal/mol for the first, 4.28 kcal/mol for the second.

Going from EVIELKIKFKTPEQREKLKEIAKKLNAEVVEEKDGEVIIRFKTPEQAERALKEAEKLAAEVEL [G58A] to EVIELKIKFKTPEQREKLKEIAKKLNAEVVEEKDGEVIIRFKTPEQAERALKEAEKLCAEVEL [G58C], the “folding stability dG” value falls from 4.3 kcal/mol to 4.28 kcal/mol.

Going from EVIELKIKFKTPEQREKLKEIAKKLNAEVVEEKDGEVIIRFKTPEQAERALKEAEKLDAEVEL [G58D] to EVIELKIKFKTPEQREKLKEIAKKLNAEVVEEKDGEVIIRFKTPEQAERALKEAEKLEAEVEL [G58E], the “folding stability dG” value falls from 4.42 kcal/mol to 4.12 kcal/mol.

Going from EVIELKIKFKTPEQREKLKEIAKKLNAEVVEEKDGEVIIRFKTPEQAERALKEAEKLFAEVEL [G58F] to EVIELKIKFKTPEQREKLKEIAKKLNAEVVEEKDGEVIIRFKTPEQAERALKEAEKLHAEVEL [G58H], the “folding stability dG” value rises from 4.24 kcal/mol to 4.27 kcal/mol.

First: EVIELKIKFKTPEQREKLKEIAKKLNAEVVEEKDGEVIIRFKTPEQAERALKEAEKLIAEVEL [G58I]
Second: EVIELKIKFKTPEQREKLKEIAKKLNAEVVEEKDGEVIIRFKTPEQAERALKEAEKLKAEVEL [G58K]
The “folding stability dG” value of the first is lower: 4.22 kcal/mol for the first, 4.25 kcal/mol for the second.

Compared with EVIELKIKFKTPEQREKLKEIAKKLNAEVVEEKDGEVIIRFKTPEQAERALKEAEKLLAEVEL [G58L], EVIELKIKFKTPEQREKLKEIAKKLNAEVVEEKDGEVIIRFKTPEQAERALKEAEKLMAEVEL [G58M] is lower in “folding stability dG” value: 4.35 kcal/mol for the first, 4.33 kcal/mol for the second.

Compared with EVIELKIKFKTPEQREKLKEIAKKLNAEVVEEKDGEVIIRFKTPEQAERALKEAEKLNAEVEL [G58N], EVIELKIKFKTPEQREKLKEIAKKLNAEVVEEKDGEVIIRFKTPEQAERALKEAEKLPAEVEL [G58P] is lower in “folding stability dG” value: 4.25 kcal/mol for the first, 3.83 kcal/mol for the second.

Compared with EVIELKIKFKTPEQREKLKEIAKKLNAEVVEEKDGEVIIRFKTPEQAERALKEAEKLQAEVEL [G58Q], EVIELKIKFKTPEQREKLKEIAKKLNAEVVEEKDGEVIIRFKTPEQAERALKEAEKLRAEVEL [G58R] is higher in “folding stability dG” value: 4.25 kcal/mol for the first, 4.27 kcal/mol for the second.

Compared with EVIELKIKFKTPEQREKLKEIAKKLNAEVVEEKDGEVIIRFKTPEQAERALKEAEKLSAEVEL [G58S], EVIELKIKFKTPEQREKLKEIAKKLNAEVVEEKDGEVIIRFKTPEQAERALKEAEKLTAEVEL [G58T] is lower in “folding stability dG” value: 4.43 kcal/mol for the first, 4.26 kcal/mol for the second.

EVIELKIKFKTPEQREKLKEIAKKLNAEVVEEKDGEVIIRFKTPEQAERALKEAEKLVAEVEL [G58V] and EVIELKIKFKTPEQREKLKEIAKKLNAEVVEEKDGEVIIRFKTPEQAERALKEAEKLWAEVEL [G58W] are the same in “folding stability dG” value: 4.21 kcal/mol for the first, 4.21 kcal/mol for the second.

Compared with EVIELKIKFKTPEQREKLKEIAKKLNAEVVEEKDGEVIIRFKTPEQAERALKEAEKLYAEVEL [G58Y], EVIELKIKFKTPEQREKLKEIAKKLNAEVVEEKDGEVIIRFKTPEQAERALKEAEKLGCEVEL [A59C] is lower in “folding stability dG” value: 4.25 kcal/mol for the first, 4.17 kcal/mol for the second.

First: EVIELKIKFKTPEQREKLKEIAKKLNAEVVEEKDGEVIIRFKTPEQAERALKEAEKLGDEVEL [A59D]
Second: EVIELKIKFKTPEQREKLKEIAKKLNAEVVEEKDGEVIIRFKTPEQAERALKEAEKLGEEVEL [A59E]
The “folding stability dG” value of the first is higher: 4.28 kcal/mol for the first, 4.23 kcal/mol for the second.

First: EVIELKIKFKTPEQREKLKEIAKKLNAEVVEEKDGEVIIRFKTPEQAERALKEAEKLGFEVEL [A59F]
Second: EVIELKIKFKTPEQREKLKEIAKKLNAEVVEEKDGEVIIRFKTPEQAERALKEAEKLGGEVEL [A59G]
The “folding stability dG” value of the first is higher: 4.59 kcal/mol for the first, 4.18 kcal/mol for the second.

Going from EVIELKIKFKTPEQREKLKEIAKKLNAEVVEEKDGEVIIRFKTPEQAERALKEAEKLGHEVEL [A59H] to EVIELKIKFKTPEQREKLKEIAKKLNAEVVEEKDGEVIIRFKTPEQAERALKEAEKLGIEVEL [A59I], the “folding stability dG” value falls from 4.43 kcal/mol to 4.01 kcal/mol.

For EVIELKIKFKTPEQREKLKEIAKKLNAEVVEEKDGEVIIRFKTPEQAERALKEAEKLGKEVEL [A59K], the “folding stability dG” value was 4.31 kcal/mol.
